# Source: the supplement of paper PMC10567573
# B1: ZNF263 (parent)
# chain: CSECGESFSRSSRLMSHQRTHTG
# B2: ETS1 (parent)
# chain: FSEPSFITESYQTLHPISSEELLS
# Variants of: B1
# Assay: protein stability index of a GFP-peptide fusion (GPS, HEK-293T) (PSI 1-6); higher = more stable
# Settings: c terminus: native
# 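Note: lentivirally expressed fusions sorted by FACS into six bins by GFP to DsRed ratio, PSI derived from sequencing read proportions per bin multiplied by bin number.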
row,Variant,protein stability index
1,M15S,2.19
2,M15D,3.48
3,M15E,3.72
4,M15F,3.2
5,M15A,3.54
6,M15R,3.03
7,M15P,1.72
8,M15K,3.97
9,M15H,3.24
10,M15G,1.98
11,M15C,2.75
12,M15W,1.85
13,M15Q,3.51
14,M15Y,2.83
15,M15N,2.22
16,M15T,2.54
17,M15V,2.54
18,M15L,3.13
19,M15I,3.54
20,H21M,1.45
21,H21Y,2.64
22,H21F,2.47
23,H21K,1.78
24,H21E,2.15
25,H21L,2.52
26,H21N,2.4

row,Variant,protein stability index
1,H21C,2.72
2,H21T,1.6
3,H21G,3.01
4,H21W,1.87
5,H21D,3.31
6,H21S,2.74
7,G23I,4.41
8,G23A,2.97
9,G23L,4.69
10,G23E,4.44
11,G23H,3.59
12,G23Y,3.29
13,G23R,4.2
14,G23V,3.56
15,G23T,4.04
16,G23F,3.74
17,G23W,3.79
18,G23S,4
19,G23Q,4.16
20,G23C,3.33
21,G23P,4.52
22,G23N,4.85
23,G23K,4.89
24,G23M,4.34
25,T20D,3.75
26,T20V,2.9

row,Variant,protein stability index
1,T20C,2.35
2,T20N,1.93
3,T20A,3.7
4,T20K,3.72
5,T20G,2.96
6,T20E,2.45
7,T20Q,3.26
8,T20S,2.44
9,T20H,3.72
10,T20F,2.48
11,T20I,4.43
12,T20L,3.21
13,T20Y,2.08
14,T20M,1.95
15,T20W,1.92
16,L14N,2.12
17,L14M,1.87
18,L14T,2.05
19,L14P,1.67
20,L14V,1.45
21,L14W,1.96
22,L14F,2.43
23,L14Y,2.98
24,L14G,1.62
25,L14E,2.35
26,L14Q,1.32

row,Variant,protein stability index
1,L14H,1.55
2,L14D,2.74
3,L14A,2.39
4,R19H,4.51
5,R19Q,3.63
6,R19T,3.76
7,R19E,3.78
8,R19V,2.73
9,R19M,3.43
10,R19Y,3.63
11,R19A,4.1
12,R19S,3.46
13,R19F,3.55
14,R19P,2.44
15,R19W,3.17
16,R19I,2.58
17,R19K,5.13
18,R19D,4.39
19,R19C,5
20,R19N,4.11
21,R19L,3.49
22,S12C,3.76
23,S12Y,2.65
24,S12P,2.06
25,S12D,4.42
26,S12M,2.58

row,Variant,protein stability index
1,S12H,2.66
2,S12R,2.23
3,S12K,1.99
4,S12A,2.13
5,S12L,2.01
6,S12W,2.13
7,S12F,1.86
8,S12Q,2.38
9,S12N,2.52
10,S12I,2.4
11,S12V,1.86
12,S12G,1.91
13,S12T,1.72
14,R13H,4.79
15,R13W,2.56
16,R13E,5.6
17,R13A,4.91
18,R13Q,4.66
19,R13G,3.3
20,R13P,2.43
21,R13M,4.03
22,R13V,4.14
23,R13D,5.63
24,R13I,3.96
25,R13S,4.84
26,R13K,4.19

row,Variant,protein stability index
1,R13L,4.84
2,R13Y,3.6
3,R13F,3.48
4,R13N,4.26
5,R13C,4.52
6,R13T,4.34
7,T22V,3.03
8,T22S,2.23
9,T22I,2.95
10,T22E,3.76
11,T22W,2.25
12,T22M,3.83
13,T22D,4.27
14,T22L,4.2
15,T22Y,2.25
16,T22C,2.08
17,T22F,3.75
18,T22A,2.03
19,T22Q,2.43
20,T22N,2.29
21,H17Q,2.04
22,H17L,1.38
23,H17S,1.51
24,H17K,2.76
25,H17Y,1.76
26,H17N,1.57

row,Variant,protein stability index
1,H17T,1.46
2,H17C,2.42
3,H17F,2.73
4,H17W,3.17
5,H17E,2.38
6,H17P,1.11
7,H17A,1.44
8,H17I,3.2
9,H17D,2.52
10,S11V,4.71
11,S11Y,3.67
12,S11T,2.54
13,S11R,2.31
14,S16T,3.34
15,S16M,4.14
16,S16V,3.49
17,S16C,3.1
18,S16D,4.8
19,S16Y,1.93
20,S16N,2.14
21,S16A,3.8
22,S16F,2.28
23,S16E,4.89
24,S16L,3.83
25,S16R,3.69
26,S16H,2.64

row,Variant,protein stability index
1,S16W,1.83
2,S16I,2.88
3,Q18P,2.22
4,Q18Y,2.39
5,Q18T,2.24
6,Q18F,2.38
7,Q18C,2.5
8,Q18I,3.21
9,Q18L,3.02
10,Q18D,2.58
11,Q18G,2.49
12,Q18R,1.89
13,Q18H,2.57
14,Q18E,2.76
15,Q18N,2.16
16,Q18K,2.22
17,Q18S,2.13
18,Q18W,2.77
19,Q18A,2.48
20,Q18M,4.32

# Variants of: B2
# Assay: as above
# Settings: c terminus: a fixed tail appended
row,Variant,protein stability index
1,P4Y,2.2
2,P4E,3.19
3,P4M,2.19
4,P4K,2.45
5,P4D,3.65
6,P4W,2.17
7,P4F,1.92
8,P4G,2.37
9,P4H,2.54
10,P4T,2.65
11,P4I,1.54
12,P4V,1.49
13,P4N,2.99
14,P4A,2.21
15,P4Q,2.81
16,P4L,2.03
17,P4C,2.2
18,P4R,2.13
19,P4S,2.39
20,E3F,1.6
21,E3R,2.25
22,E3L,1.81

row,Variant,protein stability index
1,E3P,2.9
2,E3T,2.35
3,E3Y,2.23
4,E3C,1.7
5,E3Q,1.7
6,E3I,1.77
7,E3A,2.37
8,E3G,2
9,E3W,1.5
10,E3K,2.05
11,E3M,1.9
12,E3H,2.17
13,E3S,2.21
14,E3D,1.74
15,E3V,2.5
16,E3N,1.87
17,S2M,1.72
18,S2I,3.17
19,S2K,3.34
20,S2D,4.15
21,S2C,2.38
22,S2T,1.95

row,Variant,protein stability index
1,S2W,2.1
2,S2V,2.42
3,S2H,2.46
4,S2N,3.37
5,S2Q,1.65
6,S2A,2.42
7,S2E,3.98
8,S2R,2.66
9,S2G,2.63
10,S2F,2.26
11,S2L,1.49
12,S2Y,2.62
13,S2P,1.95
14,F6N,4.57
15,F6V,3.23
16,F6T,4.34
17,F6Y,2.74
18,F6S,4.2
19,F6P,4.26
20,F6C,3.36
21,F6L,3.22
22,F6Q,4.76

row,Variant,protein stability index
1,F6G,3.85
2,F6W,2.27
3,F6I,3.15
4,F6E,4.53
5,F6K,3.58
6,F6A,4
7,F6M,3.48
8,F6D,4.8
9,F6R,4.13
10,F6H,4.14
11,I7A,1.59
12,I7E,4.03
13,I7T,3.29
14,I7N,4.24
15,I7C,2.03
16,I7H,2.42
17,I7V,2.21
18,I7Q,3.83
19,I7S,3.55
20,I7P,3.09
21,I7F,1.68
22,I7R,3.17

row,Variant,protein stability index
1,I7G,2.33
2,I7M,2.31
3,I7K,3.73
4,I7W,2.33
5,I7D,4.01
6,I7L,2.19
7,F1M,4
8,F1S,4.07
9,F1K,4.06
10,F1Q,4.43
11,F1L,4.45
12,F1H,4.1
13,F1P,4.23
14,F1I,4.03
15,F1A,4.17
16,F1V,4.18
17,F1N,4.24
18,F1C,3.52
19,F1G,4.4
20,F1Y,2.1
21,F1E,4.56
22,F1T,4.51

row,Variant,protein stability index
1,F1R,4.2
2,F1D,4.47
3,F1W,3.67
4,S5K,2.14
5,S5L,1.99
6,S5R,2.63
7,S5A,2.07
8,S5N,2.34
9,S5M,2.37
10,S5V,1.91
11,S5H,1.58
12,S5T,2.1
13,S5Q,1.75
14,S5P,2.66
15,S5E,2.35
16,S5W,2.11
17,S5Y,1.8
18,S5F,2.26
19,S5I,1.48
20,S5G,2.09
21,S5C,1.69
22,S5D,2.51
